Test results as given in patent publication US20180134781A1 (Regeneron, published 2018).

B1: H4H15357P2 (antibody, human IgG4, V domains shown)
VH: EVQLVESGGGLVKPGGSLRLSCTASGFTFGNAWMSWVRQAPGKGLEWVGLIKGKTDGGTTNYAAPVKGRFTISRDDSKNTLYLHLNSLRTEDTALYYCTTDQVELRQYYYYGLDVWGQGTTVTVSS
VL: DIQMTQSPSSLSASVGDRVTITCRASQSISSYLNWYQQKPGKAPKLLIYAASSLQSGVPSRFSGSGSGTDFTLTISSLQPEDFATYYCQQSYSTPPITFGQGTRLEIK
notes: human IgG4 Fc (H4H prefix)
B2: H4H15330P (antibody, human IgG4, V domains shown)
VH: QVQLVESGGGLVKPGGSLRLSCAASGFTFSDYYMSWIRQAPGKGLEWISHISGSGRTTHYADSMKGRFTISRDNAKNSLYLQMNSLRAEDTAVYYCVREGGFNWNYEGTFDIWGQGTMVTVSS
VL: DIVMTQTPLSSPVTLGQPASISCRSSQSLLHSDQNTYLSWLHQRPGQPPRLLIYKISNRFSGVPDRFSGSGAGTDFTLKISRVEAEDVGIYYCMQGTQFPLTFGGGTKVEIK
notes: human IgG4 Fc (H4H prefix)
B3: H4H15362P2 (antibody, human IgG4, V domains shown)
VH: QVQLVESGGGVVQPGRSLRLSCAASGFTFSSYGMHWVRQAPGKGLEWVAVIWYDGSNKYYADSVKGRFTISRDNSKNTLYLQMNSLRAEDTAVYYCARDWVRFLEWFPHFDYWGQGTLVTVSS
VL: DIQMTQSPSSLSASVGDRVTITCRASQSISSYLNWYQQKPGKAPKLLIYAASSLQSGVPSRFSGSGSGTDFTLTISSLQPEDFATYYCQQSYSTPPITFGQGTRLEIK
notes: human IgG4 Fc (H4H prefix)
B4: H4H15363P2 (antibody, human IgG4, V domains shown)
VH: EVQLVESGGGLVQPGGSLRLSCAASGFTFSNYAMSWVRQVPGKGLEWVSTISGSGGSTYYADSVKGRFTISRDNSKNSLYLQMNSLRAEDTAVYYCAKLVRGVIGWFDPWGQGTLVTVSS
VL: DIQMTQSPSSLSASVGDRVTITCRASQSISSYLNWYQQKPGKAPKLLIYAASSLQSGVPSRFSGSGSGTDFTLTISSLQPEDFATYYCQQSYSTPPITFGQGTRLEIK
notes: human IgG4 Fc (H4H prefix)
B5: H4H15347P (antibody, human IgG4, V domains shown)
VH: EVQLVESGGGLVQPGGSLRLSCAASGFTFRNYAMNWARQAPGKGLEWVSGITGSGGATYYADSVKGRFTISRENSKNTLFLQMDTLRAEDTAVYYCAKDRRYFPTSGGPQWGQGTLVTVSS
VL: DIVMTQSPLSLPVTPGEPASISCRSSRSLLHSSGYNYLDWYLQKPGQSPQLLLYLGSNRASGVPDRFSGSGSGTYFTLKISRVDAEDVGVYYCMQALQTPWTFGQGTKVEIK
notes: human IgG4 Fc (H4H prefix)
B6: H4H15335P (antibody, human IgG4, V domains shown)
VH: QVQLVESGGGVVQPGRSLRLSCAASGFTFNNYGIHWVRQAPGKGLEWVAVISYDESNKYYADSVKGRFTISRDNSKNTLYLQMNSLRAEDTAVYYCAKDIRIAARRHYYYYGMDVWGQGTTVTVSS
VL: DIQMTQSPSSVSASVGDRVTITCRASQGISRWLAWYQQKPGKAPKLLIYAASSLESGVPARFSGSGSGTDFTLTISSLQPEDFATYYCQQANSFPITFGPGTKVDIK
notes: human IgG4 Fc (H4H prefix)
B7: H4H15355P2 (antibody, human IgG4, V domains shown)
VH: QVQLVESGGGVVQPGRSLRLSCAASGFTFTNYAMHWVRQAPGKGLEWVAVISYDGSHTYFADSVKGRFTMSRDNSKNTISLQMNSLRPEDTAVYFCAGGGATTWFYFYGLDVWGQGTTVTVSS
VL: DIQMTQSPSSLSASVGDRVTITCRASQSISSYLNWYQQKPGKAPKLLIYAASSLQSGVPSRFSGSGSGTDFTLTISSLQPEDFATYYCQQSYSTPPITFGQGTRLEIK
notes: human IgG4 Fc (H4H prefix)
B8: H4H15321P (antibody, human IgG4, V domains shown)
VH: EVQLVESGGGLVQPGGSLRLSCAASGFTFSSYAMSWVRQAPGKGLEWVSAITGSGGRTYYADSVKGRFTISRDNAKNTLYLQMNSLRAEDTAVYYCAKNFPFDYWGQGTLVTVSS
VL: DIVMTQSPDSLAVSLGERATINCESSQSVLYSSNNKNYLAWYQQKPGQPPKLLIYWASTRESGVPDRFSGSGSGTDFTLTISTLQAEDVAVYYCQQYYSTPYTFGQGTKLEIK
notes: human IgG4 Fc (H4H prefix)
B9: H4H15367P2 (antibody, human IgG4, V domains shown)
VH: QVQLVESGGGVVQPGRSVRLSCGASGFTFKYYGMHWVRQAPGKGLEWVAVIWYDGRNKFYADSVKGRFTISRDNSKNTVNLEMNNLRAEDTAIYYCARDGGTADGDYFDYWGQGTLVTVSS
VL: not shown
notes: human IgG4 Fc (H4H prefix)
B10: H4H15369P2 (antibody, human IgG4, V domains shown)
VH: EVQLVESGGGLVQPGGSLRLSCVGTGFTFSNYAMSWVRQAPGKGLEWVSGISGRSSGTFYADSVKGRFTISRDNSQNTLYLQMNSLGAEDTAVYYCAKVSRYNWDYVPFDFWGQGTLVTVSS
VL: not shown
notes: human IgG4 Fc (H4H prefix)

Each binder was assayed against T1, hLDLR-mFc (negative control protein with the same mFc tag) (human, UniProt P01130 22-788) (assay: BLI (Octet HTX), hLDLR-mFc captured on AMC sensor).
T1 construct: also called Irrelevant control; not shown: mFc tag ('the same mFc tag', mouse IgG2a Fc)
T1 sequence (P01130 22-788): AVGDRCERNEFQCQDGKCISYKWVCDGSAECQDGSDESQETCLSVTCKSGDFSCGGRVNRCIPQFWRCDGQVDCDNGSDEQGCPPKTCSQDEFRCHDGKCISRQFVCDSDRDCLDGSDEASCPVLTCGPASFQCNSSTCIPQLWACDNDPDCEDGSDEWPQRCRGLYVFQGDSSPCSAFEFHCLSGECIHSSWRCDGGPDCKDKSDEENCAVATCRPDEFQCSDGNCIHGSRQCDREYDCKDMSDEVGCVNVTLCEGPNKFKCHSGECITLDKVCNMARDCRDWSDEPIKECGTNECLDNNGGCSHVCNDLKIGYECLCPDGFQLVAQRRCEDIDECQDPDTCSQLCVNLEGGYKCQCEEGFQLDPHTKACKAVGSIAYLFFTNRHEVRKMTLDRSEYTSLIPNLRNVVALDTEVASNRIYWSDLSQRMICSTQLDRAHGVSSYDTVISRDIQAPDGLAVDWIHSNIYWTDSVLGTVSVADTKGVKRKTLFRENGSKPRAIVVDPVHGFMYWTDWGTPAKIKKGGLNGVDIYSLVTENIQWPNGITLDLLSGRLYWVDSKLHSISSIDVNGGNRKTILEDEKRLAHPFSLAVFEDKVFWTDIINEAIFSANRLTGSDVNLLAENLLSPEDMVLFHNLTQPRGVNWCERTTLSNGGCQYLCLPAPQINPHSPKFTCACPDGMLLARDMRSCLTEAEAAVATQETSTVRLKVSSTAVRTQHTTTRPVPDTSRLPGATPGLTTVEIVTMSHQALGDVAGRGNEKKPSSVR
Protocol: Binding of ANGPTL8 antibodies to human and monkey ANGPTL8 proteins was investigated using Bio-layer Interferometry with an Octet HTX biosensor platform (ForteBio, A Division of Pall Life Sciences). All experiments were performed at 25° C. in 10 mM HEPES pH 7.4, 150 mM NaCl, 0.05% v/v Surfactant Tween-20, and 1 mg/ml BSA with the reaction multiwell plate agitated at 1000 rpm. Approximately 1.6 nm of human ANGPTL8 produced with a C-terminal mouse IgG2a Fc tag (hANGPTL8-mFc; SEQ ID NO: 340) or cynomolgus monkey ANGPTL8 produced with a C-terminal mouse IgG2a Fc tag (MfANGPTL8-mFc; SEQ ID NO: 341) was captured onto anti-mFc (AMC) Octet biosensors by submerging the sensors into wells containing 10 μg/mL of each protein for 4 minutes. Under the same conditions a negative control protein with the same mFc tag (hLDLR-mFc) was also coupled to the AMC sensor. All four sensors, […] and one blank, were then submerged into wells containing 100 nM of different ANGPTL8 monoclonal antibodies or an isotype control for 4 minutes.
B1: no binding (tested: 0.03 nm at 100 nM mAb).
B2: no binding (tested: 0.03 nm at 100 nM mAb).
B3: no binding (tested: 0.03 nm at 100 nM mAb).
B4: no binding (tested: 0.03 nm at 100 nM mAb).
B5: no binding (tested: 0.03 nm at 100 nM mAb).
B6: no binding (tested: 0.03 nm at 100 nM mAb).
B7: no binding (tested: 0.03 nm at 100 nM mAb).
B8: no binding (tested: 0.03 nm at 100 nM mAb).
B9: no binding (tested: 0.03 nm at 100 nM mAb).
B10: no binding (tested: 0.03 nm at 100 nM mAb).
